Measured values from patent publication US20160272683A1 (Novo Nordisk, published 2016).
Blank lines part the entries; values can stand above or below the binder they belong to. Numbered stars: 1 amine (or outer) side, 2 acyl side, 3 side chain; on linkers, the order of the positions; unused ones are H or OH. * marks the point of attachment. C20 diacid = O=C(O)CCCCCCCCCCCCCCCCCCC(=O)*; C18 diacid = O=C(O)CCCCCCCCCCCCCCCCC(=O)*; γGlu = O=C(O)[C@H](CCC(=O)[*:2])N[*:1]

Key:
[1] = molecular target: T1, human calcitonin receptor on BHK570/CRE-luc cells (human, UniProt P30988 25-474); assay: cell-based or functional assay
T1 sequence (looked up): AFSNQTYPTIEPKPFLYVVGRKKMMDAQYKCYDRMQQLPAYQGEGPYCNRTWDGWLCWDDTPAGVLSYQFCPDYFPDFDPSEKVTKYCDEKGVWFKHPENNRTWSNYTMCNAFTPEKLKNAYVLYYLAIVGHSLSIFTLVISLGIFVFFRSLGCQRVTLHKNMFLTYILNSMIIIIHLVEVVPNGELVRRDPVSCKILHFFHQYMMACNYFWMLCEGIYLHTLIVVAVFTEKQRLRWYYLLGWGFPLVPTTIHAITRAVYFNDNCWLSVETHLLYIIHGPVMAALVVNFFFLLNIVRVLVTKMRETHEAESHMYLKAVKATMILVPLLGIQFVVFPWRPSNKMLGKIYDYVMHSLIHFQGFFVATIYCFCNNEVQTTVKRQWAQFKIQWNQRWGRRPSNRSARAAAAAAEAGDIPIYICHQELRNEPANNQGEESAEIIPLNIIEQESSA

[2] = molecular target: T2, human amylin 3(a) receptor (human calcitonin receptor co-expressed with RAMP-3) on BHK570/CRE-luc cells (human, UniProt P30988 25-474; O60896 24-148); assay: cell-based or functional assay
T2 sequence (looked up) 1: T1 sequence (looked up)
T2 sequence (looked up) 2: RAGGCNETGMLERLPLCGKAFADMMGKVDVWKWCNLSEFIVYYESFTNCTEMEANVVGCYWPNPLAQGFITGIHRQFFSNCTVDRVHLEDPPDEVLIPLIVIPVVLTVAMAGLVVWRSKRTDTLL

B1: [N-terminal(C18 diacid-gGlu), des1, 9V, 30S, 31G]mimylin (peptide)
peptide: {C18 diacid-γGlu}-ASELSTAVLGRLSAELHELATLPRTETGSGSP-NH2
SMILES: CC(C)C[C@H](NC(=O)[C@H](CCC(=O)O)NC(=O)[C@H](Cc1c[nH]cn1)NC(=O)[C@H](CC(C)C)NC(=O)[C@H](CCC(=O)O)NC(=O)[C@H](C)NC(=O)[C@H](CO)NC(=O)[C@H](CC(C)C)NC(=O)[C@H](CCCNC(=N)N)NC(=O)CNC(=O)[C@H](CC(C)C)NC(=O)[C@@H](NC(=O)[C@H](C)NC(=O)[C@@H](NC(=O)[C@H](CO)NC(=O)[C@H](CC(C)C)NC(=O)[C@H](CCC(=O)O)NC(=O)[C@H](CO)NC(=O)[C@H](C)NC(=O)CC[C@H](NC(=O)CCCCCCCCCCCCCCCCC(=O)O)C(=O)O)[C@@H](C)O)C(C)C)C(=O)N[C@@H](C)C(=O)N[C@H](C(=O)N[C@@H](CC(C)C)C(=O)N1CCC[C@H]1C(=O)N[C@@H](CCCNC(=N)N)C(=O)N[C@H](C(=O)N[C@@H](CCC(=O)O)C(=O)N[C@H](C(=O)NCC(=O)N[C@@H](CO)C(=O)NCC(=O)N[C@@H](CO)C(=O)N1CCC[C@H]1C(N)=O)[C@@H](C)O)[C@@H](C)O)[C@@H](C)O
hCTR funct. EC50 (pM), tested with HSA [1]: 11 pM | hAmylin-R funct. EC50 (pM), tested with HSA [2]: 17 pM

B2: [N-terminal(C20 diacid-gGlu), des1, 4G, 23Y, 30S, 31G]mimylin (peptide)
peptide: {C20 diacid-γGlu}-ASGLSTAALGRLSAELHELATYPRTETGSGSP-NH2
hCTR funct. EC50 (pM), tested with HSA [1]: 45 pM | hAmylin-R funct. EC50 (pM), tested with HSA [2]: 71 pM

B4: [N-terminal(C18 diacid-gGlu), des1, 30S, 31G, 32P]mimylin (peptide)
peptide: {C18 diacid-γGlu}-ASELSTAALGRLSAELHELATLPRTETGSGPP-NH2
SMILES: CC(C)C[C@H](NC(=O)[C@H](C)NC(=O)[C@H](C)NC(=O)[C@@H](NC(=O)[C@H](CO)NC(=O)[C@H](CC(C)C)NC(=O)[C@H](CCC(=O)O)NC(=O)[C@H](CO)NC(=O)[C@H](C)NC(=O)CC[C@H](NC(=O)CCCCCCCCCCCCCCCCC(=O)O)C(=O)O)[C@@H](C)O)C(=O)NCC(=O)N[C@@H](CCCNC(=N)N)C(=O)N[C@@H](CC(C)C)C(=O)N[C@@H](CO)C(=O)N[C@@H](C)C(=O)N[C@@H](CCC(=O)O)C(=O)N[C@@H](CC(C)C)C(=O)N[C@@H](Cc1c[nH]cn1)C(=O)N[C@@H](CCC(=O)O)C(=O)N[C@@H](CC(C)C)C(=O)N[C@@H](C)C(=O)N[C@H](C(=O)N[C@@H](CC(C)C)C(=O)N1CCC[C@H]1C(=O)N[C@@H](CCCNC(=N)N)C(=O)N[C@H](C(=O)N[C@@H](CCC(=O)O)C(=O)N[C@H](C(=O)NCC(=O)N[C@@H](CO)C(=O)NCC(=O)N1CCC[C@H]1C(=O)N1CCC[C@H]1C(N)=O)[C@@H](C)O)[C@@H](C)O)[C@@H](C)O
hCTR funct. EC50 (pM), tested with HSA [1]: 95 pM | hAmylin-R funct. EC50 (pM), tested with HSA [2]: 413 pM

The remaining lines, values ahead:

hCTR funct. EC50 (pM), tested with HSA [1]: 30 pM | hAmylin-R funct. EC50 (pM), tested with HSA [2]: 58 pM
B3: [N-terminal(C20 diacid-gGlu), des1, 21S, 23Y, 30S, 31G]mimylin (peptide)
peptide: {C20 diacid-γGlu}-ASELSTAALGRLSAELHELSTYPRTETGSGSP-NH2
SMILES: CC(C)C[C@H](NC(=O)[C@H](C)NC(=O)[C@H](C)NC(=O)[C@@H](NC(=O)[C@H](CO)NC(=O)[C@H](CC(C)C)NC(=O)[C@H](CCC(=O)O)NC(=O)[C@H](CO)NC(=O)[C@H](C)NC(=O)CC[C@H](NC(=O)CCCCCCCCCCCCCCCCCCC(=O)O)C(=O)O)[C@@H](C)O)C(=O)NCC(=O)N[C@@H](CCCNC(=N)N)C(=O)N[C@@H](CC(C)C)C(=O)N[C@@H](CO)C(=O)N[C@@H](C)C(=O)N[C@@H](CCC(=O)O)C(=O)N[C@@H](CC(C)C)C(=O)N[C@@H](Cc1c[nH]cn1)C(=O)N[C@@H](CCC(=O)O)C(=O)N[C@@H](CC(C)C)C(=O)N[C@@H](CO)C(=O)N[C@H](C(=O)N[C@@H](Cc1ccc(O)cc1)C(=O)N1CCC[C@H]1C(=O)N[C@@H](CCCNC(=N)N)C(=O)N[C@H](C(=O)N[C@@H](CCC(=O)O)C(=O)N[C@H](C(=O)NCC(=O)N[C@@H](CO)C(=O)NCC(=O)N[C@@H](CO)C(=O)N1CCC[C@H]1C(N)=O)[C@@H](C)O)[C@@H](C)O)[C@@H](C)O

hCTR funct. EC50 (pM), tested with HSA [1]: 37 pM | hAmylin-R funct. EC50 (pM), tested with HSA [2]: 100 pM
B5: [N-terminal(C20 diacid-gGlu), des1, 23Y, 30S, 31G, 32A]mimylin (peptide)
peptide: {C20 diacid-γGlu}-ASELSTAALGRLSAELHELATYPRTETGSGAP-NH2
SMILES: CC(C)C[C@H](NC(=O)[C@H](C)NC(=O)[C@H](C)NC(=O)[C@@H](NC(=O)[C@H](CO)NC(=O)[C@H](CC(C)C)NC(=O)[C@H](CCC(=O)O)NC(=O)[C@H](CO)NC(=O)[C@H](C)NC(=O)CC[C@H](NC(=O)CCCCCCCCCCCCCCCCCCC(=O)O)C(=O)O)[C@@H](C)O)C(=O)NCC(=O)N[C@@H](CCCNC(=N)N)C(=O)N[C@@H](CC(C)C)C(=O)N[C@@H](CO)C(=O)N[C@@H](C)C(=O)N[C@@H](CCC(=O)O)C(=O)N[C@@H](CC(C)C)C(=O)N[C@@H](Cc1c[nH]cn1)C(=O)N[C@@H](CCC(=O)O)C(=O)N[C@@H](CC(C)C)C(=O)N[C@@H](C)C(=O)N[C@H](C(=O)N[C@@H](Cc1ccc(O)cc1)C(=O)N1CCC[C@H]1C(=O)N[C@@H](CCCNC(=N)N)C(=O)N[C@H](C(=O)N[C@@H](CCC(=O)O)C(=O)N[C@H](C(=O)NCC(=O)N[C@@H](CO)C(=O)NCC(=O)N[C@@H](C)C(=O)N1CCC[C@H]1C(N)=O)[C@@H](C)O)[C@@H](C)O)[C@@H](C)O

hCTR funct. EC50 (pM), tested with HSA [1]: 71 pM | hAmylin-R funct. EC50 (pM), tested with HSA [2]: 93 pM
B6: [N-terminal(C20 diacid-gGlu), des1, 23Y, 30S, 31G, 33Y]mimylin (peptide)
peptide: {C20 diacid-γGlu}-ASELSTAALGRLSAELHELATYPRTETGSGSY-NH2
SMILES: CC(C)C[C@H](NC(=O)[C@H](C)NC(=O)[C@H](C)NC(=O)[C@@H](NC(=O)[C@H](CO)NC(=O)[C@H](CC(C)C)NC(=O)[C@H](CCC(=O)O)NC(=O)[C@H](CO)NC(=O)[C@H](C)NC(=O)CC[C@H](NC(=O)CCCCCCCCCCCCCCCCCCC(=O)O)C(=O)O)[C@@H](C)O)C(=O)NCC(=O)N[C@@H](CCCNC(=N)N)C(=O)N[C@@H](CC(C)C)C(=O)N[C@@H](CO)C(=O)N[C@@H](C)C(=O)N[C@@H](CCC(=O)O)C(=O)N[C@@H](CC(C)C)C(=O)N[C@@H](Cc1c[nH]cn1)C(=O)N[C@@H](CCC(=O)O)C(=O)N[C@@H](CC(C)C)C(=O)N[C@@H](C)C(=O)N[C@H](C(=O)N[C@@H](Cc1ccc(O)cc1)C(=O)N1CCC[C@H]1C(=O)N[C@@H](CCCNC(=N)N)C(=O)N[C@H](C(=O)N[C@@H](CCC(=O)O)C(=O)N[C@H](C(=O)NCC(=O)N[C@@H](CO)C(=O)NCC(=O)N[C@@H](CO)C(=O)N[C@@H](Cc1ccc(O)cc1)C(N)=O)[C@@H](C)O)[C@@H](C)O)[C@@H](C)O
